Test results reported in US7906310B2, “Proteases” (Novozymes A/S, priority 2003, dated 2011).

B1: Brachysporiella protease: protease from Brachysporiella gayana CGMCC 0865, amino acids 1-186 of SEQ ID NO: 14 (protein, listed as Brachysporiella gayana)
chain: MELTSLIAALAVILPIAYGVPMDATTNLSPKVLAAMKRDLGLDAREATARVTFERRAGDVIEELRSSLGDSFAGAWVTDGKVINIGVTDQALVSKVKEAGAEPMVMKNSLGKLQEAKKKLDQIIKEKPKTLSTSGKPGIATYYVDIETNKLIITALSTSITQAEDLAKEVGLSESEFEVRKTEKMP
B2: Protease 18: protease from Nocardiopsis dassonvillei subsp. dassonvillei DSM 43235, amino acids 1-188 of SEQ ID NO: 12 (protein)
chain: APAPVPQTPVADDSAASMTEALKRDLDLTSAEAEELLSAQEAAIETDAEATEAAGEAYGGSLFDTETLELTVLVTDASAVEAVEATGAQATVVSHGTEGLTEVVEDLNGAEVPESVLGWYPDVESDTVVVEVLEGSDADVAALLADAGVDSSSVRVEEAEEAPQVYADIIGGLAYYMGGRCSVGFAAT
modifications: Nocardiopsis dassonvillei subspecies dassonvillei
B3: Protease 35: protease from Nocardiopsis prasina DSM 15649, amino acids 1-188 of SEQ ID NO: 8 (protein, listed as Nocardiopsis prasina)
chain: ATGPLPQSPTPEADAVSMQEALQRDLGLTPLEADELLAAQDTAFEVDEAAAEAAGDAYGGSVFDTETLELTVLVTDSAAVEAVEATGAGTELVSYGITGLDEIVEELNAADAVPGVVGWYPDVAGDTVVLEVLEGSGADVGGLLADAGVDASAVEVTTTEQPELYADIIGGLAYTMGGRCSVGFAATN
B4: Metarhizium protease: known protease derived from Metarhizium anisopliae, amino acids 1-188 of SEQ ID NO: 4 (protein, listed as Metarhizium anisopliae)
chain: MELTKFLALLAVILPVAYGAPTQAASLHPQILEAMKRDLGLNAEQATVRVAREIHATDVIEQLRSSVAFAGAWIDADVLYIGITDQALADEVTAAGATPIVMTNSLSKLEKAKEDLDKIFIGRANTLETSSDTSSGIASYFVDVAANKLVIEALADSHGHAEQLAAQVGLTSEFEVRTVETMPTTMAT
B5: Protease 11: protease from Nocardiopsis prasina DSM 15648, amino acids 1-188 of SEQ ID NO: 6 (protein, listed as Nocardiopsis prasina)
chain: ATGPLPQSPTPEADAVSMQEALQRDLGLTPLEADELLAAQDTAFEVDEAAAAAAGDAYGGSVFDTETLELTVLVTDAASVEAVEATGAGTELVSYGIEGLDEIIQDLNAADAVPGVVGWYPDVAGDTVVLEVLEGSGADVSGLLADAGVDASAVEVTSSAQPELYADIIGGLAYTMGGRCSVGFAATN
B6: Protease 10: known protease derived from Nocardiopsis sp. NRRL 18262, amino acids 1-188 of SEQ ID NO: 2 (protein)
chain: ADIIGGLAYTMGGRCSVGFAATNAAGQPGFVTAGHCGRVGTQVTIGNGRGVFEQSVFPGNDAAFVRGTSNFTLTNLVSRYNTGGYATVAGHNQAPIGSSVCRSGSTTGWHCGTIQARGQSVSYPEGTVTNMTRTTVCAEPGDSGGSYISGTQAQGVTSGGSGNCRTGGTTFYQEVTPMVNSWGVRLRT
B7: Protease 08: protease from Nocardiopsis alba DSM 15647, amino acids 1-188 of SEQ ID NO: 10 (protein, listed as Nocardiopsis alba)
chain: ATGPLPQSPTPDEAEATTMVEALQRDLGLSPSQADELLEAQAESFEIDEAATAAAADSYGGSIFDTDSLTLTVLVTDASAVEAVEAAGAEAKVVSHGMEGLEEIVADLNAADAQPGVVGWYPDIHSDTVVLEVLEGSGADVDSLLADAGVDTADVKVESTTEQPELYADIIGGLAYTMGGRCSVGFAA

Assay: Stability assay: residual activity after incubation with 1 mM inhibitor, measured by pNA assay
Format: physicochemical
Parameters: key to Residual Enzyme Activity: fraction of activity at 0 h incubation (0.80 = 80%)
Conditions: 25° C.
Method: Feature i) is determined as residual (=rest, or remaining) enzyme activity after having incubated the enzyme for 164 hours, at pH 7 and 25° C., in assay buffer supplemented with 0.1% K-Sorbate (for preservation purposes), and in the presence of 1 mM Cu^2+. The residual activity is measured relative to the activity after 0 hours of incubation. For the protease of the invention, the residual activity is at least 0.80 (=80%).
(§1) Protease activity is measured using the substrate Suc-AAPF-pNA, in assay buffer at pH 7.0 and 25° C. For more details, please refer to the pNA assay described in Example 4, which also describes in detail the determination according to i) and ii).
(§2) 20 ul (microliters) protease (diluted in 0.01% Triton X-100) was placed in a well of a micro titer plate. The assay was started by adding 200 ul pNA substrate (50 mg dissolved in 1.0 ml DMSO and further diluted 100× with assay buffer). The increase in OD405 was monitored as a measure of the protease activity.
The protease was diluted to approx. 1 mg/ml (see below) in assay buffer with 0.1% (w/v) K-sorbate (potassium salt of sorbic acid) and 1 mM inhibitor. The mixture was incubated at 25° C.). At intervals, a sample was withdrawn from the incubation (after thorough mixing) and frozen. After dilution in assay buffer, residual activity was measured using the pNA assay. For the 1 mM inhibitor additions, the incubation was diluted in assay buffer with 5 mM EDTA in order to see a pure stability effect.
Protease concentrations were estimated from the theoretical molar extinction coefficients, E280 (1 M), which can be calculated from the amino acid composition using the formula: E280 (1 M)=5690*NTrp+1280*NTyr+120*NCys, where NTrp, NTyr, and NCys are the number of Trp, Tyr, and Cys amino acid residues in the protease (Gill, S. C., von Hippel, P. H., Analytical Biochemistry 182: 319-326 (1989)) and the molecular weight, Mw, of the protease calculated from the amino acid sequence. From an A280 measurement of a pure protease sample (more than 95% pure according to Example 2), the protease concentration was calculated as: Conc (mg/ml)=(A280*MW)/E280 (1 M)).
The stability of the various proteases in the presence of the various inhibitors in a concentration of 1 mM was tested as described above. The only inhibitor that had some effect on the stability of some of the proteases was Cu^2+. However, the effect of this inhibitor was not the same on all the proteases: See the results in Table 2 below showing that Protease 18 and the Brachysporiella proteases are indeed stable in the presence of 1 mM Cu^2+, while the other proteases are not.
With B1 the “Stability in the presence of 1 mM Cu2+” value was “stable”.
In the case of B2, the “Stability in the presence of 1 mM Cu2+” value is reported as “stable”.

Same assay, conditions: incubation time 0 hours; 1 mM Cu2+; 25° C., pH 7, 0.1% K-sorbate; relative to 0 hours
For B3, the “Residual Enzyme Activity” value was 1.000.
With B4 the “Residual Enzyme Activity” value was 1.000.
With B1 the “Residual Enzyme Activity” value was 1.000.
With B5 the “Residual Enzyme Activity” value was 1.000.
With B2 the “Residual Enzyme Activity” value was 1.000.
With B6 the “Residual Enzyme Activity” value was 1.000.
With B7 the “Residual Enzyme Activity” value was 1.000.

Same assay, conditions: incubation time 3.1 hours; 1 mM Cu2+; 25° C., pH 7, 0.1% K-sorbate; relative to 0 hours
With B3 the “Residual Enzyme Activity” value was 0.960.
In the case of B4, the “Residual Enzyme Activity” value is reported as 0.979.
In the case of B1, the “Residual Enzyme Activity” value is reported as 1.022.
In the case of B5, the “Residual Enzyme Activity” value is reported as 0.930.
With B2 the “Residual Enzyme Activity” value was 0.985.
With B6 the “Residual Enzyme Activity” value was 0.952.
For B7, the “Residual Enzyme Activity” value was 0.936.

Same assay, conditions: incubation time 18.6 hours; 1 mM Cu2+; 25° C., pH 7, 0.1% K-sorbate; relative to 0 hours
With B3 the “Residual Enzyme Activity” value was 0.918.
With B4 the “Residual Enzyme Activity” value was 0.939.
In the case of B1, the “Residual Enzyme Activity” value is reported as 1.073.
In the case of B5, the “Residual Enzyme Activity” value is reported as 1.032.
For B2, the “Residual Enzyme Activity” value was 1.008.
In the case of B6, the “Residual Enzyme Activity” value is reported as 0.868.
For B7, the “Residual Enzyme Activity” value was 0.867.

Same assay, conditions: incubation time 44.0 hours; 1 mM Cu2+; 25° C., pH 7, 0.1% K-sorbate; relative to 0 hours
With B3 the “Residual Enzyme Activity” value was 0.852.
For B4, the “Residual Enzyme Activity” value was 0.891.
With B1 the “Residual Enzyme Activity” value was 1.057.
With B5 the “Residual Enzyme Activity” value was 0.930.
With B2 the “Residual Enzyme Activity” value was 1.003.
With B6 the “Residual Enzyme Activity” value was 0.874.
For B7, the “Residual Enzyme Activity” value was 0.842.

Same assay, conditions: incubation time 116.0 hours; 1 mM Cu2+; 25° C., pH 7, 0.1% K-sorbate; relative to 0 hours
For B3, the “Residual Enzyme Activity” value was 0.807.
With B4 the “Residual Enzyme Activity” value was 0.760.
In the case of B1, the “Residual Enzyme Activity” value is reported as 1.029.
For B5, the “Residual Enzyme Activity” value was 0.737.
For B2, the “Residual Enzyme Activity” value was 0.982.
With B6 the “Residual Enzyme Activity” value was 0.837.
For B7, the “Residual Enzyme Activity” value was 0.767.

Same assay, conditions: incubation time 164.0 hours; 1 mM Cu2+; 25° C., pH 7, 0.1% K-sorbate; relative to 0 hours
In the case of B3, the “Residual Enzyme Activity” value is reported as 0.745.
With B4 the “Residual Enzyme Activity” value was 0.651.
For B1, the “Residual Enzyme Activity” value was 1.053.
For B5, the “Residual Enzyme Activity” value was 0.616.
For B2, the “Residual Enzyme Activity” value was 1.030.
For B6, the “Residual Enzyme Activity” value was 0.752.
For B7, the “Residual Enzyme Activity” value was 0.721.

Same assay, conditions: incubation time 188.6 hours; 1 mM Cu2+; 25° C., pH 7, 0.1% K-sorbate; relative to 0 hours
In the case of B3, the “Residual Enzyme Activity” value is reported as 0.733.
In the case of B4, the “Residual Enzyme Activity” value is reported as 0.627.
With B1 the “Residual Enzyme Activity” value was 0.984.
For B5, the “Residual Enzyme Activity” value was 0.581.
With B2 the “Residual Enzyme Activity” value was 0.993.
In the case of B6, the “Residual Enzyme Activity” value is reported as 0.723.
In the case of B7, the “Residual Enzyme Activity” value is reported as 0.703.

Same assay, conditions: pH 7, 25° C., 0.1% K-Sorbate, 164 hours
With B1 the “Feature i): residual activity at least 0.80 after 164 hours with 1 mM Cu2+” value was “fulfil feature i)”.
For B2, the “Feature i): residual activity at least 0.80 after 164 hours with 1 mM Cu2+” value was “fulfil feature i)”.

Assay: pNA assay: protease activity with 1 mM Cu2+ relative to control without Cu2+
Format: biochemical
Conditions: 1 mM Cu2+; enzyme 1 mg/l; Suc-AAPF-pNA; pH 7, 25° C.
Method: as §1
Feature ii) is determined as the enzyme activity in the presence of 1 mM Cu^2+, relative to the activity of the same enzyme under the same conditions, except for the presence of Cu^2+. For the protease of the invention, this relative activity is at least 0.66 (=66%). For the purposes of feature ii), enzyme (protease) activity is measured as described above.
pNA substrate: Suc-AAPF-pNA (Bachem L-1400) or Boc-VLGR-pNA (Bachem L-1205). Temperature: 25° C.
as §2
First, the effect of various Cu^2+ concentrations was tested with an enzyme dosage of 1 mg/l. At least in the range of 0 to 1 mM Cu^2+ there seemed to be a linear relationship between inhibition and concentration of Cu^2+, the inhibition manifesting itself as a decrease in the enzyme activity with increasing concentrations of Cu^2+ (the enzyme activity being measured as average OD405 increase/time from the linear part of dose/response curves).
With B3 the “Enzyme Activity, +1 mM Cu^2+” value was 75.0 mOD405/min.
For B4, the “Enzyme Activity, +1 mM Cu^2+” value was 72.4 mOD405/min.
For B1, the “Enzyme Activity, +1 mM Cu^2+” value was 50.5 mOD405/min.
In the case of B5, the “Enzyme Activity, +1 mM Cu^2+” value is reported as 92.3 mOD405/min.
In the case of B2, the “Enzyme Activity, +1 mM Cu^2+” value is reported as 158.0 mOD405/min.
With B6 the “Enzyme Activity, +1 mM Cu^2+” value was 80.3 mOD405/min.
In the case of B7, the “Enzyme Activity, +1 mM Cu^2+” value is reported as 174.5 mOD405/min.

Same assay, conditions: activity with 1 mM Cu2+ relative to control without Cu2+; enzyme 1 mg/l; Suc-AAPF-pNA; pH 7, 25° C.
With B3 the “Relative Activity” value was 0.687.
For B4, the “Relative Activity” value was 0.612.
In the case of B1, the “Relative Activity” value is reported as 0.695.
In the case of B5, the “Relative Activity” value is reported as 0.691.
With B6 the “Relative Activity” value was 0.657.

Same assay, conditions: no Cu2+; enzyme 1 mg/l; Suc-AAPF-pNA; pH 7, 25° C.
For B3, the “Enzyme Activity, Control (no Cu^2+)” value was 109.2 mOD405/min.
With B4 the “Enzyme Activity, Control (no Cu^2+)” value was 118.2 mOD405/min.
With B1 the “Enzyme Activity, Control (no Cu^2+)” value was 72.6 mOD405/min.
In the case of B5, the “Enzyme Activity, Control (no Cu^2+)” value is reported as 133.6 mOD405/min.
In the case of B2, the “Enzyme Activity, Control (no Cu^2+)” value is reported as 193.1 mOD405/min.
With B6 the “Enzyme Activity, Control (no Cu^2+)” value was 122.2 mOD405/min.
In the case of B7, the “Enzyme Activity, Control (no Cu^2+)” value is reported as 216.0 mOD405/min.
